Test [1] has as its target soluble domain of Arabidopsis thaliana cytochrome c1 (Arabidopsis thaliana) (UniProt Q9FKS5). As to the kind of experiment: SPR; SPRi; Cc1 immobilised by direct amine coupling on a CS SPRi-Biochip (10 and 15 uM drops); WT or Y48pCMF Cc flowed at 2.5 to 10 uM, 50 uL/min; 298 K; 10 mM sodium phosphate buffer pH 6.5; reference spots with rabbit serum albumin subtracted; 1:1 binding model. For orientation: Surface plasmon resonance follows binding to a sensor surface in real time, without labels.

For test [2] the target is unchanged.
Target sequence in this assay (Q9FKS5 64-265): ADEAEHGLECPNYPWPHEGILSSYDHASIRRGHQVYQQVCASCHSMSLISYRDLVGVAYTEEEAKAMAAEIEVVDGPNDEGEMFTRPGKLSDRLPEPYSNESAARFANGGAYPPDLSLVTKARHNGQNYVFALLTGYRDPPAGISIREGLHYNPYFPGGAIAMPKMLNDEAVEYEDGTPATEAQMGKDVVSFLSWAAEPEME
The target is the same in test [3]. Put plainly: single-molecule force spectroscopy (AFM); Cc1 anchored on Au(111); Cc (E104C) anchored to the silicon AFM tip through a PEG27 linker; retraction at 1 um/s; 50 mM phosphate buffer pH 6.5; room temperature.
Target sequence in this assay (Q9FKS5 64-265): as above
Test [4] has the same target. As to the kind of experiment: dynamic force spectroscopy (AFM); Cc1 anchored on Au(111); Cc (E104C) anchored directly to Au-coated AFM tips by thiol-Au; retraction velocities 0.5 to 4 um/s; 50 mM phosphate buffer pH 6.5; Bell-Evans model.
Target sequence in this assay (Q9FKS5 64-265): as above

Chain of Y48pCMF cytochrome c E104C (P99999 1-48, stated change not applied): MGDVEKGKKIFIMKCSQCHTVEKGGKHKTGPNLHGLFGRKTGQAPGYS

Broadly, the Kd is the constant that tells how readily two partners part at equilibrium. Usually koff stands for the rate constant with which the complex falls apart. In general, kon refers to the rate constant with which the complex forms. Lower therefore signals slow association. With “Y48pCMF cytochrome c (from UniProt P99999 1-105) (natural protein)”, in test [1], the dissociation constant (Kd) stood at 357 nM, the koff amounted to 0.00358 s⁻¹ and the association rate constant (kon) turned out to be 10000 M⁻¹ s⁻¹.
In test [2], “Y48pCMF cytochrome c E104C (from UniProt P99999 1-105) (natural protein)” returned a conductance of current blinks (EC-STM static break junction, bias 0.8 V, 50 mM phosphate buffer pH 6.5), Gaussian fit of the main peak of 7.4e-06 G0. For the same substance, in test [3], the unbinding force Fr, centre of the Gaussian fit was found to be 77 pN and the unbinding force Fr, mean stood at 91 pN. The substance further came in with a rate of force-activated unbinding k^ou (Bell-Evans model) in test [4] of 48 s⁻¹.

The values above are taken from paper PMC9675734.
